Measured values as given in patent publication US20170226155A1.
Where no end group is shown, it is not given here. [ ]: non-standard residue; d: D form. The star is where a group is joined. NMeF = CN[C@@H](Cc1ccccc1)C(=O)O; boroPro = OB(O)[C@@H]1CCCN1*

Molecular target: Dipeptidyl amino peptidase type IV (DPP IV)
Assay: cell-based or functional assay

| Binder | IC50 at ten minutes, pH 2 | IC50 at ten minutes, pH 8 | IC50, pH 2 (Tetrapeptide Prodrugs) | IC50, pH 8 (Tetrapeptide Prodrugs) [nM] |
| --- | --- | --- | --- | --- |
| [NMeF]PA[boroPro] [N-Me-Phe-PRO-ALA-PRO boronic acid] | 2 µM | 2.7 µM | – | – |
| APV[boroPro] [AlaProValboroPro] | 20 nM | 21 nM | 20 nM | 21 |
| GPV[boroPro] [GlyProValboroPro] | 17 nM | 46 nM | 17 nM | 46 |
| YPA[boroPro] [Tyrosine-proline-alanine-proline boronic acid] | 15 nM | 17 nM | – | – |
| PPP[boroPro] [ProProProboroPro] | 10 µM | – | 10 µM | – |
| GPP[boroPro] [GlyProProboroPro] | 8.6 µM | 20 µM | 9 µM | – |
| FPA[boroPro] [Phenylalanine-proline-alanine-proline boronic acid] | 6 nM | 8 nM | – | – |
| AAV[boroPro] [AlaAlaValboroPro] | 2 µM | 25 µM | – | – |
| APP[boroPro] [AlaProProboroPro] | 8.3 µM | – | 8 mM | – |
